According to patent US20180171001A1 (ROCKEFELLER UNIVERSITY, published 2018):

How the values were obtained:
Test in all cases: cell-based or functional assay
[1] = target: Tro11 (Human immunodeficiency virus 1)
[2] = target: SC4226618 (Human immunodeficiency virus 1)
[3] = target: 6535_3 (Human immunodeficiency virus 1)

B1: chimeric IgG: 8ANC195 HC paired with mature LC with CDRL2 reverted to germline (antibody, V domains shown)
VH: QIHLVQSGTEVKKPGSSVTVSCKAYGVNTFGLYAVNWVRQAPGQSLEYIGQIWRWKSSASHHFRGRVLISAVDLTGSSPPISSLEIKNLTSDDTAVYFCTTTSTYDKWSGLHHDGVMAFSSWGQGTLISVSA
VL: DIQMTQSPSTLSASIGDTVRISCRASQSITGNWVAWYQQRPGKAPRLLIYKASALLGGVPSRFSGSAAGTDFTLTIGNLQAEDFGTFYCQQYDTYPGTFGQGTKVEVK
IC50 (fold change over 8ANC195 IgG), pseudovirus neutralization [panel B] [1]: 62 fold
IC50 (fold change over 8ANC195 IgG), pseudovirus neutralization [panel B] [2]: 99 fold
IC50 (fold change over 8ANC195 IgG), pseudovirus neutralization [panel B] [3]: 31 fold
